Data as given in IntAct's records for PubMed 31015422.

B1: Tumor necrosis factor alpha-induced protein 3 (Homo sapiens), P21580 (parent)
chain: MAEQVLPQALYLSNMRKAVKIRERTPEDIFKPTNGIIHHFKTMHRYTLEMFRTCQFCPQFREIIHKALIDRNIQATLESQKKLNWCREVRKLVALKTNGDGNCLMHATSQYMWGVQDTDLVLRKALFSTLKETDTRNFKFRWQLESLKSQEFVETGLCYDTRNWNDEWDNLIKMASTDTPMARSGLQYNSLEEIHIFVLCNILRRPIIVISDKMLRSLESGSNFAPLKVGGIYLPLHWPAQECYRYPIVLGYDSHHFVPLVTLKDSGPEIRAVPLVNRDRGRFEDLKVHFLTDPENEMKEKLLKEYLMVIEIPVQGWDHGTTHLINAAKLDEANLPKEINLVDDYFELVQHEYKKWQENSEQGRREGHAQNPMEPSVPQLSLMDVKCETPNCPFFMSVNTQPLCHECSERRQKNQNKLPKLNSKPGPEGLPGMALGASRGEAYEPLAWNPEESTGGPHSAPPTAPSPFLFSETTAMKCRSPGCPFTLNVQHNGFCERCHNARQLHASHAPDHTRHLDPGKCQACLQDVTRTFNGICSTCFKRTTAEASSSLSTSLPPSCHQRSKSDPSRLVRSPSPHSCHRAGNDAPAGCLSQAARTPGDRTGTSKCRKAGCVYFGTPENKGFCTLCFIEYRENKHFAAASGKVSPTASRFQNTIPCLGRECGTLGSTMFEGYCQKCFIEAQNQRFHEAKRTEEQLRSSQRRDVPRTTQSTSRPKCARASCKNILACRSEELCMECQHPNQRMGPGAHRGEPAPEDPPKQRCRAPACDHFGNAKCNGYCNECFQFKQMYG

Variants of: B1
Details: with ATG16L1, Q676U5-1
Sequence of ATG16L1, Q676U5-1 (Q676U5 whole entry): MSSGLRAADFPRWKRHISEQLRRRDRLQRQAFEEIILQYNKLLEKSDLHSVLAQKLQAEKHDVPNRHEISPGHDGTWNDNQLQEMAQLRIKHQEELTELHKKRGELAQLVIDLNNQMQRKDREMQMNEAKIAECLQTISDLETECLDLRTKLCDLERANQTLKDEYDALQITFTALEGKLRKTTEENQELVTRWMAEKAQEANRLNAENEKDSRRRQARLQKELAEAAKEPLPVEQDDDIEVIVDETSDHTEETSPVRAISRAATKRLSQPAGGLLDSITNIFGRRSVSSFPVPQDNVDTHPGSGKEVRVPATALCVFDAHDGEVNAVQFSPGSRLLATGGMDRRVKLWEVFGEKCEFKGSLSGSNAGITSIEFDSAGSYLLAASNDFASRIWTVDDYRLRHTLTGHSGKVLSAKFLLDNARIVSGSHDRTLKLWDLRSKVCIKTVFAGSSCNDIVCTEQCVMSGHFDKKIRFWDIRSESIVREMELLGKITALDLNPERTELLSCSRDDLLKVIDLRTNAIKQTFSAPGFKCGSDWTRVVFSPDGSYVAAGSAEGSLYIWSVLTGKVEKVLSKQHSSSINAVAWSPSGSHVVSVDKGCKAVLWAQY

Effect of a mutation on the interaction, with no effect:
Y246A;V249A
W168A;L171A
F224A;L227A
Y188A;L191A
Y233A;L236A
F127C
F127A;L130A
A125V
F257A;L260A
